From patent US20210246166A1 (Bayer, published 2021)
Numbered stars: 1 amine (or outer) side, 2 acyl side, 3 side chain; on linkers, the order of the positions; unused ones are H or OH. Bridge positions count the residues as written; N and C are the ends. Square brackets hold non-standard residues; d marks the D form. Ends that are not written are not given here. NH(CH2CH2O)5CH2CO = O=C(COCCOCCOCCOCCOCCN[*:1])[*:2]; Pro(3S,4R-methano) = O=C(O)[C@H]1NC[C@@H]2C[C@@H]21; Phe(3-COOH) = N[C@@H](Cc1cccc(C(=O)O)c1)C(=O)O; Oic = O=C(O)[C@@H]1C[C@@H]2CCCC[C@@H]2N1; tBuAla = CC(C)(C)C[C@H](N)C(=O)O; Cba = N[C@@H](CC1CCC1)C(=O)O; Pen = CC(C)(S)[C@H](N)C(=O)O; NMeC = CN[C@@H](CS)C(=O)O; PEG3 = NCCOCCOCCOCCC(=O)O; Orn = NCCC[C@H](N)C(=O)O; PEG2 = NCCOCCOCCC(=O)O; Sar = CNCC(=O)O

T1: recombinant human MASP1 active protease (amino acids 297-699, C-terminal His Tag) (human, UniProt P48740 297-699)
T1 sequence: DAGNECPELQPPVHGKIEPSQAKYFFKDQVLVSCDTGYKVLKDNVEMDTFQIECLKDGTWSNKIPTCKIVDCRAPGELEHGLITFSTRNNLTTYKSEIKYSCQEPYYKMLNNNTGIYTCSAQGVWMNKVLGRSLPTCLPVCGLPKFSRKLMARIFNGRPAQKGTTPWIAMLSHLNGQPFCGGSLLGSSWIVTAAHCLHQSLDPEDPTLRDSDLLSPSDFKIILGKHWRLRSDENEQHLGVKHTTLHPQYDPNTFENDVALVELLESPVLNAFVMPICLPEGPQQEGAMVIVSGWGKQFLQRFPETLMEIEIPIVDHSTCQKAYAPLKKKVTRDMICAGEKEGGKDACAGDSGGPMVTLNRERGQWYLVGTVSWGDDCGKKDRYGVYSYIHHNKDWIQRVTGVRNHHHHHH

B1: ((N-Me)G)-IC+SRS-((tBu)A)-PPI-(Pen)+IP-(PEG5-CH2CO2H (18 atoms))-NH2 (peptide)
peptide: [Sar]ICSRS[tBuAla]PPI[Pen]IP[NH(CH2CH2O)5CH2CO]-NH2
modifications: disulfide 3-11; N-terminus assumed
SMILES: CC[C@H](C)[C@H](NC(=O)CNC)C(=O)N[C@H]1CSSC(C)(C)[C@@H](C(=O)N[C@H](C(=O)N2CCC[C@H]2C(=O)NCCOCCOCCOCCOCCOCC(N)=O)[C@@H](C)CC)NC(=O)[C@H]([C@@H](C)CC)NC(=O)[C@@H]2CCCN2C(=O)[C@@H]2CCCN2C(=O)[C@H](CC(C)(C)C)NC(=O)[C@H](CO)NC(=O)[C@H](CCCNC(=N)N)NC(=O)[C@H](CO)NC1=O
B2: A-(Cba)-C+SRS-((tBu)A)-PPI-(Pen)+IPD-NH2 (peptide)
peptide: A[Cba]CSRS[tBuAla]PPI[Pen]IPD-NH2
modifications: disulfide 3-11; N-terminus assumed
SMILES: CC[C@H](C)[C@@H]1NC(=O)[C@@H]2CCCN2C(=O)[C@@H]2CCCN2C(=O)[C@H](CC(C)(C)C)NC(=O)[C@H](CO)NC(=O)[C@H](CCCNC(=N)N)NC(=O)[C@H](CO)NC(=O)[C@@H](NC(=O)[C@H](CC2CCC2)NC(=O)[C@H](C)N)CSSC(C)(C)[C@@H](C(=O)N[C@H](C(=O)N2CCC[C@H]2C(=O)N[C@@H](CC(=O)O)C(N)=O)[C@@H](C)CC)NC1=O
B3: AIC+SRSLP-(Oic)-I-(Pen)+I-NH2 (peptide)
peptide: AICSRSLP[Oic]I[Pen]I-NH2
modifications: disulfide 3-11; N-terminus assumed
SMILES: CC[C@H](C)[C@H](NC(=O)[C@H]1NC(=O)[C@H]([C@@H](C)CC)NC(=O)[C@@H]2C[C@@H]3CCCC[C@@H]3N2C(=O)[C@@H]2CCCN2C(=O)[C@H](CC(C)C)NC(=O)[C@H](CO)NC(=O)[C@H](CCCNC(=N)N)NC(=O)[C@H](CO)NC(=O)[C@@H](NC(=O)[C@@H](NC(=O)[C@H](C)N)[C@@H](C)CC)CSSC1(C)C)C(N)=O
B4: ((N-Me)G)-IC+SRS-((tBu)A)-PPI-(Pen)+IPD-(Orn)-(Orn)-(Orn)-NH2 (peptide)
peptide: [Sar]ICSRS[tBuAla]PPI[Pen]IPD[Orn][Orn][Orn]-NH2
modifications: disulfide 3-11; N-terminus assumed
SMILES: CC[C@H](C)[C@H](NC(=O)CNC)C(=O)N[C@H]1CSSC(C)(C)[C@@H](C(=O)N[C@H](C(=O)N2CCC[C@H]2C(=O)N[C@@H](CC(=O)O)C(=O)N[C@@H](CCCN)C(=O)N[C@@H](CCCN)C(=O)N[C@@H](CCCN)C(N)=O)[C@@H](C)CC)NC(=O)[C@H]([C@@H](C)CC)NC(=O)[C@@H]2CCCN2C(=O)[C@@H]2CCCN2C(=O)[C@H](CC(C)(C)C)NC(=O)[C@H](CO)NC(=O)[C@H](CCCNC(=N)N)NC(=O)[C@H](CO)NC1=O
B5: AIC+SRS-((tBu)A)-PPI-((N-Me)C)+IPD-NH2 (peptide)
peptide: AICSRS[tBuAla]PPI[NMeC]IPD-NH2
modifications: disulfide 3-11; N-terminus assumed
SMILES: CC[C@H](C)[C@H](NC(=O)[C@H](C)N)C(=O)N[C@H]1CSSC[C@@H](C(=O)N[C@H](C(=O)N2CCC[C@H]2C(=O)N[C@@H](CC(=O)O)C(N)=O)[C@@H](C)CC)N(C)C(=O)[C@H]([C@@H](C)CC)NC(=O)[C@@H]2CCCN2C(=O)[C@@H]2CCCN2C(=O)[C@H](CC(C)(C)C)NC(=O)[C@H](CO)NC(=O)[C@H](CCCNC(=N)N)NC(=O)[C@H](CO)NC1=O
B6: (Orn)-IC+SRSLP-(Oic)-I-(Pen)+IPD-NH2 (peptide)
peptide: [Orn]ICSRSLP[Oic]I[Pen]IPD-NH2
modifications: disulfide 3-11; N-terminus assumed
SMILES: CC[C@H](C)[C@H](NC(=O)[C@@H](N)CCCN)C(=O)N[C@H]1CSSC(C)(C)[C@@H](C(=O)N[C@H](C(=O)N2CCC[C@H]2C(=O)N[C@@H](CC(=O)O)C(N)=O)[C@@H](C)CC)NC(=O)[C@H]([C@@H](C)CC)NC(=O)[C@@H]2C[C@@H]3CCCC[C@@H]3N2C(=O)[C@@H]2CCCN2C(=O)[C@H](CC(C)C)NC(=O)[C@H](CO)NC(=O)[C@H](CCCNC(=N)N)NC(=O)[C@H](CO)NC1=O
B7: ((N-Me)G)-IC+SRS-((tBu)A)-PPI-(Pen)+IP-((3-Carboxy)F)-NH2 (peptide)
peptide: [Sar]ICSRS[tBuAla]PPI[Pen]IP[Phe(3-COOH)]-NH2
modifications: disulfide 3-11; N-terminus assumed
SMILES: CC[C@H](C)[C@H](NC(=O)CNC)C(=O)N[C@H]1CSSC(C)(C)[C@@H](C(=O)N[C@H](C(=O)N2CCC[C@H]2C(=O)N[C@@H](Cc2cccc(C(=O)O)c2)C(N)=O)[C@@H](C)CC)NC(=O)[C@H]([C@@H](C)CC)NC(=O)[C@@H]2CCCN2C(=O)[C@@H]2CCCN2C(=O)[C@H](CC(C)(C)C)NC(=O)[C@H](CO)NC(=O)[C@H](CCCNC(=N)N)NC(=O)[C@H](CO)NC1=O
B8: ((N-Me)G)-IC+SRSLP-(Oic)-I-(Pen)+IPD-(PEG1(10 atoms))-NH2 (peptide)
peptide: [Sar]ICSRSLP[Oic]I[Pen]IPD[PEG2]-NH2
modifications: disulfide 3-11; N-terminus assumed
SMILES: CC[C@H](C)[C@H](NC(=O)CNC)C(=O)N[C@H]1CSSC(C)(C)[C@@H](C(=O)N[C@H](C(=O)N2CCC[C@H]2C(=O)N[C@@H](CC(=O)O)C(=O)NCCOCCOCCC(N)=O)[C@@H](C)CC)NC(=O)[C@H]([C@@H](C)CC)NC(=O)[C@@H]2C[C@@H]3CCCC[C@@H]3N2C(=O)[C@@H]2CCCN2C(=O)[C@H](CC(C)C)NC(=O)[C@H](CO)NC(=O)[C@H](CCCNC(=N)N)NC(=O)[C@H](CO)NC1=O
B9: ((N-Me)G)-IC+SRSLP-(Oic)-I-(Pen)+IPD-(PEG2(13 atoms))-NH2 (peptide)
peptide: [Sar]ICSRSLP[Oic]I[Pen]IPD[PEG3]-NH2
modifications: disulfide 3-11; N-terminus assumed
SMILES: CC[C@H](C)[C@H](NC(=O)CNC)C(=O)N[C@H]1CSSC(C)(C)[C@@H](C(=O)N[C@H](C(=O)N2CCC[C@H]2C(=O)N[C@@H](CC(=O)O)C(=O)NCCOCCOCCOCCC(N)=O)[C@@H](C)CC)NC(=O)[C@H]([C@@H](C)CC)NC(=O)[C@@H]2C[C@@H]3CCCC[C@@H]3N2C(=O)[C@@H]2CCCN2C(=O)[C@H](CC(C)C)NC(=O)[C@H](CO)NC(=O)[C@H](CCCNC(=N)N)NC(=O)[C@H](CO)NC1=O
B10: VIC+SRS-((tBu)A)-PPI-(Pen)+IPD-NH2 (peptide)
peptide: VICSRS[tBuAla]PPI[Pen]IPD-NH2
modifications: disulfide 3-11; N-terminus assumed
SMILES: CC[C@H](C)[C@H](NC(=O)[C@@H](N)C(C)C)C(=O)N[C@H]1CSSC(C)(C)[C@@H](C(=O)N[C@H](C(=O)N2CCC[C@H]2C(=O)N[C@@H](CC(=O)O)C(N)=O)[C@@H](C)CC)NC(=O)[C@H]([C@@H](C)CC)NC(=O)[C@@H]2CCCN2C(=O)[C@@H]2CCCN2C(=O)[C@H](CC(C)(C)C)NC(=O)[C@H](CO)NC(=O)[C@H](CCCNC(=N)N)NC(=O)[C@H](CO)NC1=O
B11: ((N-Me)G)-IC+SRS-((tBu)A)-PPI-(Pen)+IP-((N-Me)G)-((N-Me)G)-((N-Me)G)-NH2 (peptide)
peptide: [Sar]ICSRS[tBuAla]PPI[Pen]IP[Sar][Sar][Sar]-NH2
modifications: disulfide 3-11; N-terminus assumed
SMILES: CC[C@H](C)[C@H](NC(=O)CNC)C(=O)N[C@H]1CSSC(C)(C)[C@@H](C(=O)N[C@H](C(=O)N2CCC[C@H]2C(=O)N(C)CC(=O)N(C)CC(=O)N(C)CC(N)=O)[C@@H](C)CC)NC(=O)[C@H]([C@@H](C)CC)NC(=O)[C@@H]2CCCN2C(=O)[C@@H]2CCCN2C(=O)[C@H](CC(C)(C)C)NC(=O)[C@H](CO)NC(=O)[C@H](CCCNC(=N)N)NC(=O)[C@H](CO)NC1=O
B12: ((N-Me)G)-IC+SRSL-((1S,2S,5R)-3-azabicyclo[3.1.0]hexane-2-carboxylic acid)-PI-(Pen)+IP-NH2 (peptide)
peptide: [Sar]ICSRSL[Pro(3S,4R-methano)]PI[Pen]IP-NH2
modifications: disulfide 3-11; N-terminus assumed
SMILES: CC[C@H](C)[C@H](NC(=O)CNC)C(=O)N[C@H]1CSSC(C)(C)[C@@H](C(=O)N[C@H](C(=O)N2CCC[C@H]2C(N)=O)[C@@H](C)CC)NC(=O)[C@H]([C@@H](C)CC)NC(=O)[C@@H]2CCCN2C(=O)[C@@H]2[C@H]3C[C@H]3CN2C(=O)[C@H](CC(C)C)NC(=O)[C@H](CO)NC(=O)[C@H](CCCNC(=N)N)NC(=O)[C@H](CO)NC1=O
B13: TIC+SRS-((tBu)A)-PPI-((N-Me)C)+I-NH2 (peptide)
peptide: TICSRS[tBuAla]PPI[NMeC]I-NH2
modifications: disulfide 3-11; N-terminus assumed
SMILES: CC[C@H](C)[C@H](NC(=O)[C@@H]1CSSC[C@H](NC(=O)[C@@H](NC(=O)[C@@H](N)[C@@H](C)O)[C@@H](C)CC)C(=O)N[C@@H](CO)C(=O)N[C@@H](CCCNC(=N)N)C(=O)N[C@@H](CO)C(=O)N[C@@H](CC(C)(C)C)C(=O)N2CCC[C@H]2C(=O)N2CCC[C@H]2C(=O)N[C@@H]([C@@H](C)CC)C(=O)N1C)C(N)=O
B14: IIC+SRS-((tBu)A)-PPI-(Pen)+IPD-NH2 (peptide)
peptide: IICSRS[tBuAla]PPI[Pen]IPD-NH2
modifications: disulfide 3-11; N-terminus assumed
SMILES: CC[C@H](C)[C@H](N)C(=O)N[C@H](C(=O)N[C@H]1CSSC(C)(C)[C@@H](C(=O)N[C@H](C(=O)N2CCC[C@H]2C(=O)N[C@@H](CC(=O)O)C(N)=O)[C@@H](C)CC)NC(=O)[C@H]([C@@H](C)CC)NC(=O)[C@@H]2CCCN2C(=O)[C@@H]2CCCN2C(=O)[C@H](CC(C)(C)C)NC(=O)[C@H](CO)NC(=O)[C@H](CCCNC(=N)N)NC(=O)[C@H](CO)NC1=O)[C@@H](C)CC

What follows are binders tested against recombinant human MASP2 active protease (amino acids 297-686, C-terminal His Tag) (human, UniProt O00187 297-686) (assay: cell-based or functional assay).
Chain of recombinant human MASP2 active protease (amino acids 297-686, C-terminal His Tag) (O00187 other isoform, or with tags, fused parts or gaps limits assumed): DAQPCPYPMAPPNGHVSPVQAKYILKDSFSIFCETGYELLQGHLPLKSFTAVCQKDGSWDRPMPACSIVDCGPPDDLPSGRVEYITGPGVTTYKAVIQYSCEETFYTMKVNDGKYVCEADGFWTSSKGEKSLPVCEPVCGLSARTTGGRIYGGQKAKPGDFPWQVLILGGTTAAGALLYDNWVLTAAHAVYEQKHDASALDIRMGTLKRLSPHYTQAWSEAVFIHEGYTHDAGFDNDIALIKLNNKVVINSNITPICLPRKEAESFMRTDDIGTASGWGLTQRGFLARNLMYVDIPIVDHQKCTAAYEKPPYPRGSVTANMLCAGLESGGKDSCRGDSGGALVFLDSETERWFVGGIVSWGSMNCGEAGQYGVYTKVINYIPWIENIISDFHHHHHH

In order of falling “human MASP2 IC50” value:
1. B5  225 nM
2. B4  130 nM
3. B3  98 nM
4. B9  96 nM
5. B13  80 nM
6. B6  76 nM
7. B10  73 nM
8. B14  72 nM
9. B8  68 nM
10. B11  47 nM
11. B1  42 nM
12. B7  42 nM
13. B2  24 nM
14. B12  20 nM

These binders were tested against T1, recombinant human MASP1 active protease … (assay: cell-based or functional assay).

In order of rising “human MASP1 IC50” value:
1. B8  0.93 nM
2. B5  1.95 nM
3. B1  2 nM
4. B2  2 nM
5. B4  2 nM
6. B6  2 nM
7. B7  2 nM
8. B10  2 nM
9. B11  2 nM
10. B13  2 nM
11. B3  2.1 nM
12. B9  2.1 nM
13. B12  2.1 nM
14. B14  2.1 nM
